Measurements from IntAct's records for PubMed 21152186.

B1: Matrix metalloproteinase-28 (Homo sapiens), Q9H239 (parent)
chain: MVARVGLLLRALQLLLWGHLDAQPAERGGQELRKEAEAFLEKYGYLNEQVPKAPTSTRFSDAIRAFQWVSQLPVSGVLDRATLRQMTRPRCGVTDTNSYAAWAERISDLFARHRTKMRRKKRFAKQGNKWYKQHLSYRLVNWPEHLPEPAVRGAVRAAFQLWSNVSALEFWEAPATGPADIRLTFFQGDHNDGLGNAFDGPGGALAHAFLPRRGEAHFDQDERWSLSRRRGRNLFVVLAHEIGHTLGLTHSPAPRALMAPYYKRLGRDALLSWDDVLAVQSLYGKPLGGSVAVQLPGKLFTDFETWDSYSPQGRRPETQGPKYCHSSFDAITVDRQQQLYIFKGSHFWEVAADGNVSEPRPLQERWVGLPPNIEAAAVSLNDGDFYFFKGGRCWRFRGPKPVWGLPQLCRAGGLPRHPDAALFFPPLRRLILFKGARYYVLARGGLQVEPYYPRSLQDWGGIPEEVSGALPRPDGSIIFFRDDRYWRLDQAKLQATTSGRWATELPWMGCWHANSGSALF

Variants of: B1
Conditions: with furin_human FURIN

| Variant | effect of a mutation on the interaction |
| --- | --- |
| Y43A;G44A | with no effect |
| E241A | with no effect |
| R119A;K120A | with no effect |
| Y45A;L46A | disrupting interaction strength |
